Measured values taken from patent US20040208887A1.

Tests used:
[1] = molecular target: recombinant soluble HCV E1 protein (hepatitis C virus); test: ELISA, recombinant E1 captured on GNA lectin; control Fab
BSA (Sigma) = BSA (Sigma) (UniProt P02769); test: ELISA, BSA coated as negative control antigen; control Fab
[2] = molecular target: recombinant E1/E2 heterodimer protein (genotype 1a) (hepatitis C virus genotype 1a) (UniProt P26664); test: ELISA, E1/E2 heterodimer coated; control Fab
Chain of recombinant E1/E2 heterodimer protein (genotype 1a) (hepatitis C virus genotype 1a) (P26664 192-383 limits assumed, chain 1 of 2): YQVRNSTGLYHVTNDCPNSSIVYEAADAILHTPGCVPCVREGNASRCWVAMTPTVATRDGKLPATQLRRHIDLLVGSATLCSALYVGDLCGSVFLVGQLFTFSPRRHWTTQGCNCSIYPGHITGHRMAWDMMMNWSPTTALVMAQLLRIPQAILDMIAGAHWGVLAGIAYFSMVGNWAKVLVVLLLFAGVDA
Chain of recombinant E1/E2 heterodimer protein (genotype 1a) (hepatitis C virus genotype 1a) (P26664 384-746 limits assumed, chain 2 of 2): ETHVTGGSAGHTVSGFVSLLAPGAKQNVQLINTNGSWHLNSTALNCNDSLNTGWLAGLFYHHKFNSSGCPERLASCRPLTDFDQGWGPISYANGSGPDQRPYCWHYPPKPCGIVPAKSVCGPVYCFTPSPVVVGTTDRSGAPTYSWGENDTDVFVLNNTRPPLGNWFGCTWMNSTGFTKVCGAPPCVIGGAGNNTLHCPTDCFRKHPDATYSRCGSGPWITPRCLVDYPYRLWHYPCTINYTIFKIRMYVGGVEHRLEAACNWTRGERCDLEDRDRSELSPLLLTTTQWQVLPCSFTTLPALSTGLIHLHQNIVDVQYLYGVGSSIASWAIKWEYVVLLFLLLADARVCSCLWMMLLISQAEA

Chain of BSA (Sigma) (P02769 25-607 limits assumed): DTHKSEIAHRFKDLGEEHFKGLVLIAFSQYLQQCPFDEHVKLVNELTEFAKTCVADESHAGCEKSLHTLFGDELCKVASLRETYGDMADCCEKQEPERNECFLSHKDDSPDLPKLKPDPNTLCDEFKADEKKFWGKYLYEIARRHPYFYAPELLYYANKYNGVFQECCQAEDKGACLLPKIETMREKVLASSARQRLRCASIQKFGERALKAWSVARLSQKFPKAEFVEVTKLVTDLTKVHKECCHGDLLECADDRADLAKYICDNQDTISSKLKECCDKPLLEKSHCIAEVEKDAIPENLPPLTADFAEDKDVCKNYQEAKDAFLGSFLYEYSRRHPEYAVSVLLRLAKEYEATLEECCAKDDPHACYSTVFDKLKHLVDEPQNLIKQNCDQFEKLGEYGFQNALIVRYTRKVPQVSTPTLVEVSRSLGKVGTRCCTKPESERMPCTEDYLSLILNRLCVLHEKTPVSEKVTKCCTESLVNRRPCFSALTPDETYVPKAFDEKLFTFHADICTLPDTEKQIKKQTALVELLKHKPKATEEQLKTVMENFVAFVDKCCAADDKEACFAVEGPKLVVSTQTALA

How did the OD405 nm [1] turn out when non-specific Fab was run?
The OD405 nm was 0.2 OD405 nm.

What about the OD405 nm (BSA (Sigma)) of the same substance?
The OD405 nm was 0.14 OD405 nm.

What about the OD405 nm [2] of the same substance?
The OD405 nm was 0.11 OD405 nm.
